In US20040067880A1 (priority 2002, published 2004):

Key:
[1] = target: CS receptor on human cells (HepG2 hepatoma cells; human liver metastases of colorectal cancer) (human); experiment: indirect immunofluorescence on frozen sections of human liver MCC from six patients
[2] = target: CS receptor on human cells (HepG2 hepatoma cells; human liver metastases of colorectal cancer) (human); experiment: cell-based or functional assay
[3] = target: CS receptor on mouse colorectal carcinoma MCA26 cells (mouse); experiment: cell-based or functional assay
[4] = target: CS receptor on rat cells (rat liver sections; rat hepatoma H4IIE) (rat); experiment: cell-based or functional assay
[5] = Cytosine deaminase enzymatic activity assay (conversion of [3H]cytosine to [3H]uracil); type: biochemical; conditions: purified recombinant protein
Description: Crude cell extracts were prepared by sonicating cells in a buffer (50 mM Na phosphate, pH 7.8 and 0.3 M NaCl) followed by centrifugation. Cytosine deaminase activity was determined by measuring the production of uracil in a reaction mixture (50 μl) containing 5 mM, 6-[^3H]cytosine (0.45 Ci/mol), 50 mM Tris-HCl pH 7.8, 1 mM DTT, 1 mM EDTA and cellular crude extract (10-20 μg/ml) or eluted fractions. After 1-2 hour of incubation at 37° C., 10 μl aliquots were withdrawn and analyzed by thin layer chromatography (Silica Gel 60, Selecto Scientific, Norcross, Ga.). Chromatograms were developed in 1-butanol /water (86/14, v/v). Positions of cytosine and uracil were identified by […]. The corresponding spots for cytosine and uracil were cut out and radioactivities were determined in a scintillation counter. In some cases, 6-[3H] 5-FC (4.0 Ci/mmol) was used as a substrate in the assay.

HepG2 cells [6] = type: cell-based, human; conditions: HepG2, 0.64 μM protein 4 hrs, 1 mM 5-FC, viability after 4 days
HL60 cells = experiment: Cytotoxicity assay with 5-FC in HL60 cells; type: cell-based; conditions: HL-60, 0.64 μM protein 4 hrs, protein removed (washed), 1 mM 5-FC
HepG2 cells [7] = experiment: Persistent effect on 5-FC cell killing of HepG2 cells; type: cell-based, human; conditions: HepG2, 0.5 μM protein 4 hrs, then 5-FC at intervals
Description: FIG. 7. Persistent effect of CD-CS on cell killing of HepG2 cells. HepG2 cells were treated with 0.8 μM of CD-CS or with CD as a control for 4 hr. Cells was washed with fresh medium and cultured in the regular medium. Cultures were split once every 6 days. At different time intervals, cells were treated with 1 mM 5-FC. Cell viability was counted 4 days thereafter. Each point represents an average of three independent experiments.
HepG2 cells were treated with 0.5 μM of CD-CS or CD for 4 hrs and the recombinant proteins were removed from the medium and the cells were maintained in fresh medium thereafter. At different time intervals, cells were treated with 5-FC. Sustained cell killing was observed even 28 days after the removal of the recombinant protein (FIG. 7).

With “full-length recombinant CS protein (malarial circumsporozoite protein) (from UniProt P19597 27-396) (ligand)” the positive staining cells [1] was > 90%.

In the case of “CD-CS fusion protein (cytosine deaminase fused to repeat-deleted malarial circumsporozoite protein, encoded by pCD5-73.15.5) (from UniProt P19597 27-29; P25524 2-427; P19597 30-396)”, the LD50 of CD-CS-mediated cell killing, HepG2 [2] is reported as 0.22 µM, the LD50 of CD-CS-mediated cell killing, MCA26 [3] is reported as 0.22 µM and the LD50 of CD-CS-mediated cell killing, rat hepatoma H-4-II-E [4] is reported as 0.22 µM.

B1: CD: recombinant Escherichia coli cytosine deaminase with 6 histidine residues at the C-terminus (protein, UniProt P25524 2-427, looked up)
Cytosine deaminase: SNNALQTIINARLPGEEGLWQIHLQDGKISAIDAQSGVMPITENSLDAEQGLVIPPFVEPHIHLDTTQTAGQPNWNQSGTLFEGIERWAERKALLTHDDVKQRAWQTLKWQIANGIQHVRTHVDVSDATLTALKAMLEVKQEVAPWIDLQIVAFPQEGILSYPNGEALLEEALRLGADVVGAIPHFEFTREYGVESLHKTFALAQKYDRLIDVHCDEIDDEQSRFVETVAALAHHEGMGARVTASHTTAMHSYNGAYTSRLFRLLKMSGINFVANPLVNIHLQGRFDTYPKRRGITRVKEMLESGINVCFGHDDVFDPWYPLGTANMLQVLHMGLHVCQLMGYGQINDGLNLITHHSARTLNLQDYGIAAGNSANLIILPAENGFDALRRQVPVRYSVRGGKVIASTQPAQTTVYLEQPEAIDYKR
modifications: C-terminal His6 tag
notes: recombinant Escherichia coli cytosine deaminase with 6 histidine residues at the C-terminus
For B1, the “specific activity, conversion of [3H]cytosine to [3H]uracil” value [5] was 3,308 nmol/min/mg protein, the “sensitivity of protein-treated cells to 5-FC” value (HepG2 cells [6]; unwashed) was “sensitive” and the “sensitivity of protein-pretreated cells to 5-FC / cell killing” value (HepG2 cells [6]; washed) was “could not”. For the same molecule, the “cell death upon subsequent addition of 5-FC” value (HL60 cells) was “failed to induce cell death” and the “cell killing (basal level)” value (HepG2 cells [7]) was < 10%.
